The text below walks through data of the DeepSol protein solubility set.

A short description of the series: soluble on expression in E. coli; label from the status in PepcDB or PDB records.
Take “MSLSGYAQTTKSEKIDKKLDSIYLKRENYVVSARDKLTIFIFSTRYLNGKLFTNPGIDNYYFPIAPLNIGLGFSHKWLAVNIAILSPKLGKSNYDNSQSKYQNFNLQALAYTPKYGVDIFYSQNLGYFLGNYNGYIDVANAPDKTPYFDMKTNRFTINLLRVFNPVKYSMNATMIGGEMQKNSSSSFIINTSFSLSKFRMSDSIPAFILDQMNQEAIFKGGTFYSISVLPGYGFTWIFSKRFYLGIIPGFGPSFQYKSMTFEDEHENKVAISYRIIAKAGAGFHAKRWTAGISVLYDNERYHLGSKTNIFNNNGKVILKVGYKINVPNWGKGLSKKMSTMQNKFEHTLHNEGHHHHHH”: the “soluble on expression in E. coli” value is reported as “not soluble”.

For the sequence “MSLSHRPVINASVSPKGTLETLSQREVQQLSETANGKTYQLFRQCAPAILNTGAHSDNAKTILDAYKDFEVRIHQQDRGVRLELINAPADAFVDGEMIASTREMLFSALRDIVYTQSGLDSQHVDLDSSQGLTDYVFQLLRNARTLRPGVEPKIVVCWGGHSISSEEYKYTKRVGHELGLRSLDVCTGCGPGVMKGPMKGATISHAKQRIVGGRYLGLTEPGIIAAEAPNPIVNELVILPDIEKRLEAFVRVGHGVIIFPGGAGTAEEFLYLLGILMHPDNQDLPFPVILTGPRSAEAYLQQLHEFVGATLGHAAQRHYRIVIDDPAEVAKQMAQGLKEVKQFRRERNDAFHFNWMLKIDESFQRPFEPTHENMASLQLSRSLPPHELAANLRRAFSGIVAGNVKDNGIRMIEQYGPYEIHGDPAVMLPLDRLLQAFVKQHRMKLPGGAAYVPCYRVVQTEAAEGHHHHHH”, the “soluble on expression in E. coli” value is “soluble”.

Turning to “MSLSHTLKSKTLQELDIEEIKETNPLLKLVQGQRIVQVPELVLESGVVINNFPIAYKTWGTLNEAGDNVLVICHALTGSADVADWWGPLLGNDLAFDPSRFFIICLNSMGSPYGSFSPLTINEETGVRYGPEFPLCTVRDDVRAHRIVLDSLGVKSIACVIGGSMGGMLSLEWAAMYGKEYVKNMVALATSARHSAWCISWSEAQRQSIYSDPNYLDGYYPVEEQPVAGLSAARMSALLTYRTRNSFENKFSRRSPSIAQQQKAQREETRKPSTVSEHSLQIHNDGYKTKASTAIAGISGQKGQSVVSTASSSDSLNSSTSMTSVSSVTGEVKDIKPAQTYFSAQSYLRYQGTKFINRFDANCYIAITRKLDTHDLARDRVDDITEVLSTIQQPSLIIGIQSDGLFTYSEQEFLAEHIPKSQLEKIESPEGHDAFLLEFKLINKLIVQFLKTNCKAITDAAPRAWGGDVGNDETKTSVFGEAEEVTNWEGHHHHHH”, the “soluble on expression in E. coli” value was “soluble”.

Regarding “MSLSIPERKEFTKLYDVYDEITSKYYKDTNSTTMIDGAISGMVNSLDDPYSTFMSKKESSEFNDTISASFEGIGAEIQEKDGAIVIVSPIKNSPAEKAGLRPQDIITQVDGKSVKGDTATEATQKIRGEKGTKVTLTIQRSNEDKPFDVTITRDEIPIETVYKEMGSDKIAHVTISTFSETTYDELEKALKSLEKDGMKGLVLDLRGNPGGLLDQAVSISSLFVPDGKIVVQEQDKDGDKSAIKADSSSHGDYKVKVPTTMLIDGGSASASEILAAAAKESGGIKLVGTKSFGKGTVQTATTLSDDSTLKLTVAKWLTPNSEWIHEKGITPDVVVNMPDYATMTIPSSTKVYKNGDFGDDVKTIETLLKALDYNVGKVDGLYDTDTEYAVQRFQTANKLDVTGIMTGVTTDKLVELTQKHLKETDPQLQKAKALVKEGHHHHHH”, the “soluble on expression in E. coli” value is given as “soluble”.

For the sequence “MSLSITSDLIATANSGIWTDSEMLECCAVVPEAPDTVTISFVSPSGNLFKYEPGQFLTLELPVPGGPLYRTYTISSSPSRPLSLSITVKAQPGSIGTRWMLEKLMPGMRVKAIGPAGQFTLDTTARKKKYLFISAGSGVTPTLAMTTYLYDRGTDIDVSIINCARRPGEIIGRRSLAAMASRVPSIKLTFIVEEDDPFQVWTGLRGRLNQIMIGIVAGDYLERDIYCCGPEPFMDAVREMLIGLGYDMSRYSQESFSAPAETAEDVPDLDDVTPDESVAAQITFVSSKVTAGCTETDTVLAVARGAGLNIPSGCTFGVCGTCKIRKTKGEVHMVHNGGISEDDIADGYILACCSKPVGQVEVDIEGHHHHHH”, the “soluble on expression in E. coli” value is “soluble”.

Take “MSLSKLDIPLSIMQKSVVIRPGGRQEMDEHVAIETPYAIALNDRVIGSSMVLPVDLEEFGAGFLFGQGYIKKAEEIREILVCPQGRISVYADVENEEPREVIITSGCGGTGKIPKEMLEGEFAPLADYCLPFAEIKSFIREALHSSPLGPQTHCVHGCGLWNNGRLQVYHEDVGRHNAVDKVLGSILLGRASNNSAVYTTGRLTSDMVLKCARIGIPIIMSRTSPSSLGLALAKRSGATLVAYSRPERINVFNAPERILTEGHHHHHH”: the “soluble on expression in E. coli” value is “soluble”.

Regarding “MSLSLRVRQIDRREWLLAQTATECQRHGREATLEYPTRQGMWVRLSDAEKRWSAWIKPGDWLEHVSPALAGAAVSAGAEHLVVPWLAATERPFELPVPHLSCRRLCVENPVPGSALPEGKLLHIMSDRGGLWFEHLPELPAVGGGRPKMLRWPLRFVIGSSDTQRSLLGRIGIGDVLLIRTSRAEVYCYAKKLGHFNRVEGGIIVETLDIQHIEEENNTTETAETLPGLNQLPVKLEFVLYRKNVTLAELEAMGQQQLLSLPTNAELNVEIMANGVLLGNGELVQMNDTLGVEIHEWLSESGNGEEGHHHHHH”, the “soluble on expression in E. coli” value is “soluble”.

Take “MSLSNDTVSGPSMQPSFENGQRLISVRHAQIKRGEVVIVKAPDEPGALYIKRVIGMPGEKIVSKNNQIYINNKKLSQPWLTQGKKMIDAGSDTFYSATQNFTMKSLARSRQFQQYYTKSQLNYINKYNRIPKETYFVMGDHRSVSKDSRYIGTIKRKNVVGVVKLRYWPLNEFKIYEGHHHHHH”: the “soluble on expression in E. coli” value was “not soluble”.

As for “MSLSQFKPTWMVKNIYDLTPAQLRANGIKVILTDLDNTLIAWNNPDGTPELRHWLTLLELAGIRVIVVSNNNRKRVDRAVAPFNLDYIHRALKPLSWGILRALRRWHLNRDEVVMVGDQLLTDVWAAHHSGVRSVLVKPILKSDAWVTKGNRLMEKVVMWRLRHNYPELTWQEDLDERKAHEGHHHHHH”, the “soluble on expression in E. coli” value is “soluble”.

With “MSLSQPIYKRILLKLSGEALQGEDGLGIDPAILDRMAVEIKELVEMGVEVSVVLGGGNLFRGAKLAKAGMNRVVGDHMGMLATVMNGLAMRDSLFRADVNAKLMSAFQLNGICDTYNWSEAIKMLREKRVVIFSAGTGNPFFTTDSTACLRGIEIEADVVLKATKVDGVYDCDPAKNPDAKLYKNLSYAEVIDKELKVMDLSAFTLARDHGMPIRVFNMGKPGALRQVVTGTEEGTTICEGHHHHHH”, the “soluble on expression in E. coli” value is listed as “soluble”.

As to “MSLSQYAEMSLVYDQLTQDQPYEKWFEIVKNHCKDESNILDIGCGTGSLTVQLEALGNVTGMDLSVDMLTVAAQKSANVNWLEGDMTSFDLQQQFDIITIFCDSLNYLQDETAVIETFINVYHHLTDSGVFIFDVHTVYKMMTLFNNQSYIDDKGDIFLAWDAVQGDLPLSVYHDMTFFIRHEDETYSRFDESHFQRTFDEKTYLSWLAQVGFKHVETFTDFNIDEHNEDTERLFFIAKKEGHHHHHH”, the “soluble on expression in E. coli” value is on record as “soluble”.

On to “MSLSSANGGHVDQSDHLALLPPNVRKKGRPTLVLDLDATLFYTSAELLNTPLDYFDMGEESTYRYLYLRPYALDFLGWASTVFEVIIWTAAMESYAEPRIRATEIDRYADVVLYRGACDMIDGSLVKNLAKLGRPLSDMIIVDDNPVSYALNVELAYPIPPFSGEEDDLELLRLVPILRKVLELSSLKRGIYKTIFSEGHHHHHH”, for which the “soluble on expression in E. coli” value was “soluble”.

With “MSLSSARFDSSDRSAWYMGPVSRQEAQTRLQGQRHGMFLVRDSSTCPGDYVLSVSENSRVSHYIINSLPNRRFKIGDQEFDHLPALLEFYKIHYLDTTTLIEPAPRYPSPPMGSVSAPNLPTAEDNLEYVRTLYDFPGNDAEDLPFKKGEILVIIEKPEEQWWSARNKDGRVGMIPVPYVEKLVRSSPHGKHGNRNSNSYGIPEPAHAYAQPQTTTPLPAVSGSPGAAITPLPSTQNGPVFAKAIQKRVPCAYDKTALALEVGDIVKVTRMNINGQWEGEVNGRKGLFPFTHVKIFDPQNPDENEGHHHHHH”, the “soluble on expression in E. coli” value is on record as “soluble”.

As to “MSLSSMLPSISPELARIAPGFRALSINVIAAPVRDAQVGEIALKEACQAVINGQPAWAQAHIDAWNAVFKAFGAKPKRTPCSAEALRKRVLKDGTMAALDPVVDLYNAVSLRYAVPVGGENSAAYCGSPRLVFADGSETFDTLKEGKPVTESPEPGEVIWRDDRGVTCRRWNWRQGVRTRLSASDKMMWFILESLPEMPVDELYAAENMLTDGLEKMMPGLRFESTLIGVEGHHHHHH”, the “soluble on expression in E. coli” value is on record as “not soluble”.

With “MSLSSRNSTPLRQFGYEFFMTPLDVSKLVLPVSENYKLGPGDEVIIYIVGLPSNQEIPPVIKTIVDREGNISIPNLGVFNVWGLTLKETEELLRQELGLDLKVTVGEIRTFVIYVAGEVNRPGTHVATAVNTVIDALSIAGGVKKTGSLRNIILTRKTPSGLKTYNIDLYDVFIKGKPIDLTLRDGDTILVKPIGPTVAIAGEVKRPAIYEIKGGETIKDLIELAGGLLPSSYQYKVILQRYENGKLRIIEDSLTNKAFMNENLRDGDLVLIKKSADIPENSYSIEGYVTLPGVYEYKEGLKLSDILNPDLFFKDTNLKFAVLVRQYPKGSIPKYIAFSPEKVLTGKEDMELKPYDRLIFFKLGQSEGHHHHHH”, the “soluble on expression in E. coli” value is listed as “soluble”.

With “MSLSSRYTPSEMAQALGAGLLSFPVTHFDADMAFDEPAYRSNLDWLSSHPAAGLFAAGGTGELFSLTLDEVDRAVRAAVTQTAGRMPVIAPAGYGTAIAVAMAQAAERNDADGILLFPPYLTECDADGVAEHVERVCKATSLGVIVYGRANARLDDVALARVAERCPNLVGYKDGIGDVERMTRIYARLGDRLLYVGGLPTAETFALPYLEMGVTTYSSAIFNFLPEWALSFYAAVRARDHATIYRELNDFVLPYTVLRNRRAGYAVSIVKAGMRAVGRPAGPVRTPLADLTEDEFAQLTQLIGGRREGHHHHHH”, the “soluble on expression in E. coli” value is given as “not soluble”.

On to “MSLSTEPLASRMRPKNIDEIISQQHLVGPKGIIRRMVDTKRLSSMIFYGPPGIGKTSIAKAISGSTQFKFRQLNAVTNTKKDMQLIVEEAKMSGQVILLLDEIHRLDKAKQDFLLPHLENGKIVLIGATTSNPYHAINPAIRSRAQIFELYPLDQDDIRLALDRAINDKERGLSTYHPIVDEDAIEYFSTQSQGDVRSALNALELAVLSAHIGEENERHITLDDAKDCLQKGAFVSDKDGDMHYDVMSAFQKSIRGSDVNAALHYLARLIEAGDLPTIVRRLLVISYEDVGLASPNAGQRTLAAIQSAERLGFPEARIPLSQAVIELCLSPKSNSGITAIDKALGDIRNGHIGQIPDYLKDGHYSGAKKLGRAIGYKYPHNYENGHVVQQYLPEKLKNRVYYEPKTTSKSEQQFKTIYDNLRNKEGHHHHHH”, for which the “soluble on expression in E. coli” value is “not soluble”.

On to “MSLSTIKDIARVAGVSVATVSRVVNNDPKVKEKTKLKVTKVMLDLNYTPNANARALVTQKNTTIGVIIPSLTDPFFASLANGVEQVARQQSMQLLLSTGLVSAESERQAINLLRERRCDVMVVHSKKLTDDELIALSEQIPGLVLIDRHIEQISHRCVWLDNLEGGKIAARHLLALNHQKFASISSKYQIEDPGLRLEGFTRELTGAGFAIDKELIEYGEPNLQGGEIATQHLLSSGKTFSALFVYNDAMAIGAISTLEDNGYRVPQDISVIGFDDVLLSRYSRPKLSTLNYPIEEMAQQAANLAIELTKERKAAKDEYKVESKTHKYVPRLVKRESTSLEGHHHHHH”, for which the “soluble on expression in E. coli” value is reported as “soluble”.

As for “MSLSVNDRDTSALRYFDFKDDEFVKPSPTEFNSWINREIVTKHHPHHNGYDEIYTKNQPQVIEGDFLYGDVRVKLANEWVSIYEYSLDSSSPSWNKIGRAVTDTNGHIKYNIPNNMKLSYGMHLIKLYVEGDGTSANMYIQVLDNTKKYVVFDMDGTLTTTDFEDVKQYAGEFFNSNYVAKMYPDVDNVVKYYASKGYGILYLTARPYWLSEESQTWLWKNGFPMGLLHTYTGGDVLLGEEAESFKAGYLNQLKSQGIEFDYGFGNEKTDVEAYSNIGIAKSNIFTIGKNRGIDGSVSIVSYTDYLKQLSGNEGHHHHHH”, the “soluble on expression in E. coli” value is “soluble”.
